{"source": "patent US20170267970A1", "about": "“Three-Dimensional Hydrogels that Support Growth of Physiologically Relevant Tissue and Methods of Use Thereof” (Whitehead Institute for Biomedical Research, priority 2016, published 2017)", "molecules": {"B1": {"name": "prolactin: lactogenic hormone; 1 μg/mL recombinant human prolactin (protein, UniProt P01236 29-227, looked up)", "Prolactin": "LPICPGGAARCQVTLRDLFDRAVVLSHYIHNLSSEMFSEFDKRYTHGRGFITKAINSCHTSSLATPEDKEQAQQMNQKDFLSLIVSILRSWNEPLYHLVTEVRGMQEAPEAILSKAVEIEEQTKRLLEGMELIVSQVHPETKENEIYPVWSGLPSLQMADEESRLSAYYNLLHCLRRDSHKIDNYLKLLKCRIIHNNNC"}}, "key": {"[1]": {"system": "breast cancer samples cultured in 3D culture", "test": "Tamoxifen sensitivity of breast cancer samples in 3D culture (CellTiter-Glo on intact gels)", "type": "cell-based, human", "settings": "48 hours of treatment; ER-positive cancer cells", "protocol": "(§1) Shown are cell counts for each dose of drug following 48 hours of treatment. Cells were counted using CellTiter-Glo assay performed on intact gels. […] Both cultures were grown in hydrogel culture for nine days with 40 ng/mL nerve growth factor."}, "[2]": {"system": "mouse dorsal root ganglia neurons", "test": "Growth of dorsal root ganglia neurons in hydrogels with nerve growth factor", "type": "cell-based", "settings": "40 ng/mL NGF; nine days", "protocol": "as §1\nMouse dorsal root ganglia were collected and either dissociated into single cells (FIG. 22A) or kept intact (FIG. 22B), and seeded into hydrogels containing no growth factors aside from 40 ng/mL nerve growth factor (NGF). They were cultured in 50% DMEM, 50% F12 growth media supplemented with 10% heat-inactivated fetal bovine serum and 40 ng/mL NGF. The cultures were grown for nine days, at which point they were fixed and stained for the expression of the sodium channel NaV1.7 (a marker of nociceptive neurons) and the DNA dye DAPI."}, "[3]": {"system": "breast tissues cultured in hydrogel scaffolds", "test": "Morphological response to hormones of breast tissues cultured in hydrogel scaffolds", "type": "cell-based, human", "from_the_text": "FIG. 1A is a schematic representation of hydrogel assembly. FIG. 1B depicts representative bright-field images of tissue growth after ten days in Matrigel, polymerized collagen or the presently disclosed three-dimensional hydrogels (e.g., in the absence of BPE), alongside carmine stained mammary tissue sections from independent reduction mammoplasty patients. […] FIG. 1E depicts schematic and representative images showing the effect of pituitary hormones (0.4% bovine pituitary extract [BPE]) and 1 μg/mL recombinant human prolactin administration on the development of tissue structures grown in the presently disclosed three-dimensional hydrogels. BPE was added at seeding (D0) and prolactin at two weeks (N=4, 7 and 14, 1 resp). Bottom left images show representative architecture prior to the administration of prolactin. […] Error bars represent SEM.\nDistance of the section from the surface of the structure is indicated. Scale bars are 200 μm.\nWe next assessed if breast tissues cultured in hydrogel scaffolds respond to steroid, pituitary, or lactogenic hormones, which are known to stimulate the development of mammary epithelial tissue in vivo."}}, "note": "“Also recorded” adds a separate entry of the source.", "data": [{"molecule": "CC/C(=C(\\c1ccccc1)c1ccc(OCCN(C)C)cc1)c1ccccc1", "note": "[tamoxifen]", "values": [{"measurement": "sensitivity / responsiveness to tamoxifen (cell counts)", "setting": "[1]", "result": "consistently responsive; also recorded: exhibit sensitivity"}]}, {"molecule": "nerve growth factor: nerve growth factor, 40 ng/mL in hydrogel and medium", "values": [{"measurement": "neuron survival and growth of axons and dendrites", "setting": "[2]", "result": "survive and grow new axons and dendrites"}]}, {"molecule": "B1", "values": [{"measurement": "increase in lobular volume", "setting": "[3]; 1 μg/mL recombinant human prolactin added at two weeks, day 21", "result": 4, "unit": "fold"}, {"measurement": "lipid droplets / lipid content (H&E, oil red O staining)", "setting": "[3]; prolactin 1 μg/mL", "result": "formation of large lipid droplets; also recorded: lipid rich; also recorded: Lipid droplets can be seen"}, {"measurement": "formation of milk-like opaque substance in lumens", "setting": "[3]; prolactin after 2 weeks of estrogen and progesterone", "result": "promotes the formation of an opaque substance that fills the luminal space of the structures"}]}]}
